One block for each binder: values may come before it.
Columns and labels:
[1] = target: T1, CNA beta C ter-delta 1 (amino acids 378 to 500), two-hybrid prey (human, UniProt P16298 378-500); assay: yeast two-hybrid mating assay
T1 construct: also called CnAβCter Δ1
Method: (§1) The 5′ end of RH6 (upper case) matches part of the HA epitope tag and the 5′ ends of RH4, RH3 and RH7 (upper case) match the 5′ extremity of the ADH terminator. The PCR reactions was performed using pCMV-SPORT6-CnAβ as a template. […] MB210a was co-transformed with the PCR products and EcoRI/XhoI-cut pJG4-5. The prey plasmids were retrieved from the transformants (21) and the homologous recombination products were checked by sequencing. MB210a was also transformed with positive and negative controls of interaction. […] The yeast two-hybrid mating assays were performed as described (21).

[2] = target: T2, CNA beta C ter-delta 2 (amino acids 378 to 456), two-hybrid prey (human, UniProt P16298 378-456); assay: yeast two-hybrid mating assay
T2 construct: also called CnAβCter Δ2
Method: as §1

[3] = target: T3, CNA beta C ter-CaM (amino acids 378 to 423), two-hybrid prey (human, UniProt P16298 378-423); assay: yeast two-hybrid mating assay
T3 construct: also called CnAβCter CaM
Method: as §1

[4] = target: T4, CNA construct CNA11, two-hybrid prey (Mus musculus (Mouse), UniProt P48453 384-495); assay: yeast two-hybrid assay (FIG. 14)
T4 construct: not shown: HA-pJG4-5 prey fusion moiety

[5] = target: T5, CNAβ C-terminal fragment (calcineurin A beta clone selected from the testes cDNA library, two-hybrid prey) (human, UniProt P16298 378-524); assay: yeast two-hybrid mating assay
T5 construct: Truncated protein; The truncations made from it start at amino acid 378; also called CNA beta C-terminal fragment
Method: as §1

[6] = target: T6, CNAγ C-terminal fragment (calcineurin A gamma clone selected from the testes cDNA library, two-hybrid prey) (human, UniProt P48454 365-512); assay: yeast two-hybrid mating assay
T6 construct: Truncated protein; also called CNA gamma C-terminal fragment
T6 sequence (P48454 365-512): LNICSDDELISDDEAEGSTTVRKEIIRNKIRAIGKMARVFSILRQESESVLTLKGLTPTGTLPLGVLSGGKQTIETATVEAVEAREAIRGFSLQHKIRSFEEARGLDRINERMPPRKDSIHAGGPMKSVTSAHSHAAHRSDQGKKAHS
Method: as §1

[7] = target: T5, CNAβ C-terminal fragment (calcineurin A …); assay: yeast two-hybrid assay (FIG. 9)
From the text: (§2) CNA beta and gamma C-Terminal fragments and NS5A-TP2 were cloned in three different vectors (pSH18-34, pJK103 and pRB18-40). These three plasmids differ from each other in the level of sensitivity of their promoter, pSH18-34 having the highest sensitivity and pRB18-40 having the lowest.

[8] = target: T6, CNAγ C-terminal fragment (calcineurin A …); assay: yeast two-hybrid assay (FIG. 9)
From the text: as §2

[9] = target: T7, NS5A-TP2 (two-hybrid prey) (human, UniProt Q7Z4H3 1-204); assay: yeast two-hybrid assay (FIG. 9)
T7 sequence: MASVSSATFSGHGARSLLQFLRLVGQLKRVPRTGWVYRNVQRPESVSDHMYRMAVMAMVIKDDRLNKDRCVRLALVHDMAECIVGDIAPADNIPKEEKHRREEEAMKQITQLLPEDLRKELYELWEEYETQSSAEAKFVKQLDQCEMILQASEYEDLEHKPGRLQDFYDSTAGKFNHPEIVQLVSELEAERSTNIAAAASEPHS
From the text: as §2

[10] = target: T7, NS5A-TP2 (two-hybrid prey); assay: yeast two-hybrid assay, higher sensitivity (FIG. 14)
[11] = target: T8, CNA construct CNA3, two-hybrid prey (Homo sapiens (Human), UniProt P16298 384-524); assay: as above
T8 construct: not shown: HA-pJG4-5 prey fusion moiety

[12] = target: T9, CNA construct CNA4, two-hybrid prey (Homo sapiens (Human), UniProt P16298 414-524); assay: as above
T9 construct: not shown: HA-pJG4-5 prey fusion moiety

[13] = target: T10, CNA construct CNA7, two-hybrid prey (Homo sapiens (Human), UniProt P16298 1-413); assay: as above
T10 construct: not shown: HA-pJG4-5 prey fusion moiety

[14] = target: T11, CNA construct CNA8, two-hybrid prey (Homo sapiens (Human), UniProt P16298 1-388); assay: as above
T11 construct: not shown: HA-pJG4-5 prey fusion moiety

[15] = target: T12, CNA construct CNA9, two-hybrid prey (Rattus norvegicus (Rat), UniProt P20651 342-419); assay: as above
T12 construct: not shown: HA-pJG4-5 prey fusion moiety

[16] = target: T13, CNA construct CNA10, two-hybrid prey; assay: as above
T13 construct: not shown: HA-pJG4-5 prey fusion moiety

[17] = target: T4, CNA construct CNA11, two-hybrid prey; assay: as above

B1: LexA-R5G42 fusion protein (peptide aptamer R5G42 as two-hybrid bait) (designed binder, not shown: large carriers)
chain: MVKQIESKTAFQEALDAAGDKLVVVDFSATWCGPSAVTFAVCALGPCKMIKPFFHSLSEKYSNVIFLEVDVDDCQDVASECEVKCMPTFQFFKKGQKVGEFSGANKEKLEATINELV
notes: also called LexA-R5G42 bait protein
binding result [1]: binds
binding result [2]: no binding
binding result [3]: no binding
binding result [4]: binds

B2: LexA-R7G44 fusion protein (peptide aptamer R7G44 as two-hybrid bait) (designed binder)
chain: MVKQIESKTAFQEALDAAGDKLVVVDFSATWCGPHQSTIGVAEFGPCKMIKPFFHSLSEKYSNVIFLEVDVDDCQDVASECEVKCMPTFQFFKKGQKVGEFSGANKEKLEATINELV
notes: Control aptamer; not shown: LexA (E. coli), fusion partner from pGILDA
binding result [5]: no binding
binding result [6]: no binding

B3: R5G42 mutant N9 (LexA fusion, two-hybrid bait) (designed binder)
chain: MVKQIESKTAFQEALDAAGDKLVVVDFSAAWCGPSAVTFAVCALGPCKMIKPFFHSLSEKYSNVIFLEVDVDDCQDVASECEVKCMPTFQFFKKGQKVGEFSGANKEKLEATINELV
notes: One amino acid change against R5G42; also called R5G42-N9; not shown: LexA fusion partner (pGILDA bait)
binding result [7]: no binding
binding result [8]: no binding
binding result [4]: binds

B4: R5G42 mutant C7 (LexA fusion, two-hybrid bait) (designed binder)
chain: MVKQIESKTAFQEALDAAGDKPVVVDFSATWCGPSAVTFAVCALGPCKMIKPFFHSLSEKYSNVIFLEVDVDDCQDVASECEVKCMPTFQFFKKGQKVGEFSGANKEKLEATINELV
notes: One amino acid change against R5G42; also called R5G42-C7; not shown: LexA fusion partner (pGILDA bait)
binding result [9]: no binding
binding result [4]: binds

Next, values leading:

binding result [10]: no binding
binding result [11]: no binding
binding result [12]: no binding
binding result [13]: no binding
binding result [14]: no binding
binding result [15]: no binding
binding result [16]: no binding
binding result [17]: no binding
B5: LexA-R5G52 fusion protein (peptide aptamer R5G52 as two-hybrid bait) (designed binder)
chain: MVKQIESKTAFQEALDAAGDKLVVVDFSATWCGPIQSPPESPTGGPCKMIKPFFHSLSEKYSNVIFLEVDVDDCQDVASECEVKCMPTFQFFKKGQKVGEFSGANKEKLEATINELV
notes: also called LexA-R5G52 bait protein; not shown: LexA (E. coli), fusion partner from pGILDA

binding result [9]: no binding
binding result [4]: binds
B6: R5G42 mutant C8 (LexA fusion, two-hybrid bait) (designed binder)
chain: MVKQIESKTAFQEALDAAGDKLVVVDFSATWCGPSAVTIAVCALGPCKMIKPFFHSLSEKYSNVIFLEVDVDDCQDVASECEVKCMPTFQFFKKGQKVGEFSGANKEKLEATINELV
notes: One amino acid change against R5G42; also called R5G42-C8; not shown: LexA fusion partner (pGILDA bait)

binding result [9]: no binding
binding result [4]: binds
B7: R5G42 mutant C2 (LexA fusion, two-hybrid bait) (designed binder)
chain: MVKQIESKTAFQEALDAAGDKLVVVDFSATWCGPSAVTFAVCALGPCKMIKLFFHSLSEKYSNVIFLEVDVDDCQDVASECEVKCMPTFQFFKKGQKVGEFSGANKEKLEATINELV
notes: One amino acid change against R5G42; also called R5G42-C2; not shown: LexA fusion partner (pGILDA bait)

Source: patent US20120245092A1 (ECOLE NORMALE SUPERIEURE DE LYON, published 2012)
